Values quoted from earlier work in PMC9917595.

Biological target: Endothelin-1 (Homo sapiens) (UniProt P05305)
Details: cited from earlier work

Chain of UniProt P05305 (P05305 53-73): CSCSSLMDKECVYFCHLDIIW

Question: Which Kd does the source give for “Endothelin B receptor (from UniProt P24530)” here?
Answer: 0.0286 nM
